± gives the uncertainty stated by the source.
Test: protein stability index of a GFP-peptide fusion (yeast GPS) (PSI 1-4); higher = more stable; sorted into four equal gates, so the index is relative within each strain
Conditions: ubr1∆
Outline: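 Plasmids isolated from each sorting gate were PCR-amplified and Illumina-sequenced, and barcodes assigned the reads to strains. The gates, four of equal size, were set by GFP/Cherry fluorescence ratio on mid-log cultures in leucine-free medium. These cultures were yeast carrying a pooled library of tiled 17-residue yeast protein peptides fused downstream of GFP on a plasmid that also expresses Cherry. The protein stability index is the sum of every gate's read frequency times its gate number.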

Question: Which protein stability index does the source give for ILIESRIHRLARYYRTV [RPS13] here?
Answer: Its protein stability index is 2.1 ± 0.051.

Question: For ILKKSLMTSHTKGDTSK [RTT102], which protein stability index is on record?
Answer: Its protein stability index is 3.05 ± 0.13.

Question: With ILKTLERSICALGEFAD [YML031W/NDC1] as the sequence, how does the protein stability index read?
Answer: Its protein stability index is 2.78 ± 0.05.

Question: With ILNELEVFIGRVKDQDG [YJR042W/NUP85] as the sequence, how does the protein stability index read?
Answer: Its protein stability index is 2.59 ± 0.059.

Question: For ILNSHFDALRSLDDNST [YJL041W/NSP1], which protein stability index is on record?
Answer: The protein stability index was 2.55 ± 0.036.

Question: For ILQIREEIPSKSWDDSV [RRP6], which protein stability index is on record?
Answer: The protein stability index was 2.7 ± 0.055.

Question: For ILQNEHDYWNKIMQSIS [SRB4], which protein stability index is on record?
Answer: The protein stability index was 2.35 ± 0.082.

Question: With ILRKSFDFLMNMPNCDY [RPN2] as the sequence, how does the protein stability index read?
Answer: Its protein stability index is 1.16 ± 0.041.

Question: With ILRSIPDKLLGVILMFA [COB] as the sequence, how does the protein stability index read?
Answer: Its protein stability index is 1.52 ± 0.054.

Question: For ILSEILCQINKCSTRGL [YML103C/NUP188], which protein stability index is on record?
Answer: Its protein stability index is 2 ± 0.057.

Question: For ILSNVDLAMANSLRRVM [RPB3], which protein stability index is on record?
Answer: Its protein stability index is 2.46 ± 0.037.

Question: Which protein stability index does the source give for ILTIIEEYKKSLYAYCH [GRR1] here?
Answer: The protein stability index was 3.38 ± 0.24.

Question: Which protein stability index does the source give for ILTTAVGLVSPSFMLKH [RPN1] here?
Answer: The protein stability index was 1.52 ± 0.077.

Question: With ILVLALEDLKDVYASKV [PRP8] as the sequence, how does the protein stability index read?
Answer: Its protein stability index is 2.21 ± 0.066.

Question: For ILYSFKLSGKLLKEEKI [YML103C/NUP188], which protein stability index is on record?
Answer: The protein stability index was 2.49 ± 0.1.

Question: Which protein stability index does the source give for IMELPGVYSDDELLSQL [SRP68] here?
Answer: Its protein stability index is 3.05 ± 0.07.

Question: For IMNELYRMKGGRVTFIP [SMC3], which protein stability index is on record?
Answer: Its protein stability index is 3.66 ± 0.16.

Question: For IMQEAGLRAVRKNRYVI [RPT3], which protein stability index is on record?
Answer: The protein stability index was 3.29 ± 0.13.

Question: Which protein stability index does the source give for INCNKETIENVKLQMIK [ECM29] here?
Answer: The protein stability index was 3.4 ± 0.13.

Question: For INELFKKYTQNNPLLLI [RPN8], which protein stability index is on record?
Answer: The protein stability index was 1.11 ± 0.049.

Question: With INELVLENFKSYAGKQV [SMC4] as the sequence, how does the protein stability index read?
Answer: The protein stability index was 2.74 ± 0.049.

Question: For INESAENFSNGISLVME [MED1], which protein stability index is on record?
Answer: The protein stability index was 3.1 ± 0.045.

Question: For INGWELTKAQKYLDQVL [RPL17B], which protein stability index is on record?
Answer: Its protein stability index is 2.74 ± 0.063.

Question: For INHKINNKITQLIAKNV [SIR3], which protein stability index is on record?
Answer: The protein stability index was 2.16 ± 0.064.

Question: With INIKYLRLDGHTKSDER [SNF2] as the sequence, how does the protein stability index read?
Answer: Its protein stability index is 2.79 ± 0.063.

Question: Which protein stability index does the source give for ININEFALPAGSPKSAT [CDC53] here?
Answer: The protein stability index was 2.73 ± 0.04.

Question: For INKMVGNRYLEKRLNLR [RPL21A], which protein stability index is on record?
Answer: Its protein stability index is 3 ± 0.065.

Question: With INSAPDFTQEDELRKQE [ISW2] as the sequence, how does the protein stability index read?
Answer: Its protein stability index is 3.46 ± 0.057.

Question: With INSTKNGKDNNNESNKN [MED2] as the sequence, how does the protein stability index read?
Answer: Its protein stability index is 3.19 ± 0.033.

Question: With INVDNDPFFAQSEDLSH [YML103C/NUP188] as the sequence, how does the protein stability index read?
Answer: Its protein stability index is 3.05 ± 0.046.

Question: Which protein stability index does the source give for IPAWFLNRQNDITDGKD [RPS18A] here?
Answer: Its protein stability index is 2.87 ± 0.09.

Question: For IPISSETTIDDLPISST [SMC1], which protein stability index is on record?
Answer: The protein stability index was 2.99 ± 0.041.

Question: With IPLGKNVVVKWQGKPVF [RIP1] as the sequence, how does the protein stability index read?
Answer: The protein stability index was 2.96 ± 0.26.

Question: With IPMDFIRNVLVTVDQYV [SSN2] as the sequence, how does the protein stability index read?
Answer: The protein stability index was 1.63 ± 0.06.

Question: For IPNLTAKPFQVTKEYFQ [FAS1], which protein stability index is on record?
Answer: The protein stability index was 2.79 ± 0.041.

Question: With IPPPMPKNQQYRAFGSI [MED7] as the sequence, how does the protein stability index read?
Answer: The protein stability index was 2.04 ± 0.071.

Question: For IPRHLQLAIRNDDELNK [HTA1], which protein stability index is on record?
Answer: The protein stability index was 2.89 ± 0.062.

Question: For IPSQRGTSTTHGSISPQ [SIR3], which protein stability index is on record?
Answer: Its protein stability index is 2.54 ± 0.026.

Question: With IPTLAIDSVEVETNTTV [RPB3] as the sequence, how does the protein stability index read?
Answer: The protein stability index was 2.98 ± 0.059.

Question: With IPVEILVRRLSDIKQGY [PRE9] as the sequence, how does the protein stability index read?
Answer: The protein stability index was 2.87 ± 0.06.

Question: With IPVGDNTVVGISGDISD [PRE4] as the sequence, how does the protein stability index read?
Answer: Its protein stability index is 3.02 ± 0.12.

Question: Which protein stability index does the source give for IPYAAKLLFQELMAMNI [RPB2] here?
Answer: The protein stability index was 1.55 ± 0.055.

Question: For IPYGPDFDNIEFKKIPR [SEC65], which protein stability index is on record?
Answer: The protein stability index was 3.17 ± 0.084.

Question: Which protein stability index does the source give for IQAVFCLTKFQDEEQTE [YCG1] here?
Answer: Its protein stability index is 2.82 ± 0.06.

Question: With IQCQIDKLYIHFVQEEP [RGR1] as the sequence, how does the protein stability index read?
Answer: The protein stability index was 3.15 ± 0.095.

Question: Which protein stability index does the source give for IQFGAKNMFEKKASKVT [ISW2] here?
Answer: The protein stability index was 2.69 ± 0.11.

Question: Which protein stability index does the source give for IQKESTLHLVLRLRGGG [RPS31] here?
Answer: Its protein stability index is 2.45 ± 0.066.

Question: With IQLLDENVGTRLLPINV [MED11] as the sequence, how does the protein stability index read?
Answer: Its protein stability index is 3.16 ± 0.063.

Question: For IQLSTVNRQSPLFFVDL [RGR1], which protein stability index is on record?
Answer: The protein stability index was 1.76 ± 0.099.

Question: With IQNKKIQEQRVKDKQSK [RPN8] as the sequence, how does the protein stability index read?
Answer: The protein stability index was 2.92 ± 0.13.

Question: Which protein stability index does the source give for IQPTAKVVYIQRRSWRQ [DIS3] here?
Answer: The protein stability index was 1.16 ± 0.12.

Reference: the supplement of paper PMC9732359
